Data on 14 molecules can be found in patent US20240400689A1 (ANTENGENE BIOLOGICS, published 2024).

In experiment [1] the target is T1, human CD276 protein (human, UniProt Q5ZPR3 29-534).
T1 sequence (looked up): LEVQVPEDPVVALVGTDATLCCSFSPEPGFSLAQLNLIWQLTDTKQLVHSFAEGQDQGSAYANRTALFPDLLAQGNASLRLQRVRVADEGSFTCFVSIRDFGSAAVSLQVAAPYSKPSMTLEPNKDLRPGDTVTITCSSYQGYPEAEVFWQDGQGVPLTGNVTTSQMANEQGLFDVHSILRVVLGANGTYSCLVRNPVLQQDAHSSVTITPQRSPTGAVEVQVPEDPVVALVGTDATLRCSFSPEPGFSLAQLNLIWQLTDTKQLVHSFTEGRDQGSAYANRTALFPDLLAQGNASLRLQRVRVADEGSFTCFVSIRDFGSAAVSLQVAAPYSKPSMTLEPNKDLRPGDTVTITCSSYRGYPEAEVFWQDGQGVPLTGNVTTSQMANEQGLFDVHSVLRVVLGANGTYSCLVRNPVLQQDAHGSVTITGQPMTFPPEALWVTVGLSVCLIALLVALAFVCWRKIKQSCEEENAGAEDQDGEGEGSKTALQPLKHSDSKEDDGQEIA
Nature of the experiment: cell-based or functional assay.

Experiment [2] addresses T1, human CD276 protein. Nature of the experiment: FACS on SKOV3 cells. The text has this:
Sequences of 31 mouse antibodies from Table 5 were selected to generate and produce human IgG1 chimeric antibodies. The binding affinity of these antibodies and bench mark antibody, Enoblituzumab (see U.S. Pat. No. 8,802,091, MGA271, specifically with a construct designated as hBRCA84D-2) and MGC018 (an antibody-drug-conjugate, in which the mAb MGA017 (human IgG1) is conjugated via a cleavable linker to the prodrug seco-DUocarmycin hydroxyBenzamide Azaindole (DUBA), an alkylating agent that can damage DNA in both dividing and non-dividing cells, thereby causing cell death) with human patient derived ovarian cancer cell line, SKOV3, was determined by FACS analysis.
1. Digested cells using Trypsin (1×); Centrifuged the harvested cells at 300 g for 3 min and discarding the supernatant. […] 2. Washed the cells 2 times with FACS buffer by centrifuging at 300 g for 3 min and discarding the supernatant. [0445] 3. […] Kept the cells in dark for FACS analysis.

Experiment [3] addresses T2, Macaca fascicularis CD276 (Macaca fascicularis).
T2 construct: whole, on cells; also called cynomolgus monkey CD276; cynoCD276
Nature of the experiment: FACS on CHO-S-cynoCD276 cells. The essentials: (§1)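 Cross-reactivity checked by FACS on CHO-S cells stably over-expressing the respective CD276, with parental CHO-S as control. Cells incubated with subclone antibodies, bound primary detected with fluorescent dye-conjugated secondary antibody; read-out is median fluorescence intensity.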

For another experiment, the target named is T3, mouse CD276 protein (mouse, UniProt Q8VE98 29-316).
T3 construct: whole, on cells; also called mCD276; CHO-S-mCD276
T3 sequence (looked up): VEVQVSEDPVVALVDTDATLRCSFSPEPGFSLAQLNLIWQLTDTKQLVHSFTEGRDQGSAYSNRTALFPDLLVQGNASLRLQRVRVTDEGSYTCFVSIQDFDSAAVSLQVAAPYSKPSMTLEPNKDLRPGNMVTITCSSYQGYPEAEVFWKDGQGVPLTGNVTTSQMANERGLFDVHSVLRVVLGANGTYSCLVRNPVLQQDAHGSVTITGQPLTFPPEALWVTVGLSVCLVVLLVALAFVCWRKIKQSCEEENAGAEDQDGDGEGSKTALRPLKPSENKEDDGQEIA
Nature of the experiment: FACS on CHO-S-mCD276 cells. The procedure, abridged:
as §1

Experiment [4] has as its target T1, human CD276 protein. Nature of the experiment: FACS on CHO-S-hCD276 cells. The essentials: as §1

B1: 5-D1-G6-D9 (human IgG1 chimeric antibody) (antibody, V domains shown)
VH: EVQLQESGAELVKPGASVKLSCKTSGLTFSTNYISWLKQKPGQSLEWIAWIYGGNGGTSYNQRFTGKAQLTVDTSSSTAYMQFSSLTTEDSAIYYCTSHDYYGGPMDYWGQGTSVTVSS
VL: DIQMTQTTSSLSASLGDRVTISCRASQDISNYLNWYQQKPDGTVKLLIYFTSRLHSGVPSRFSASGSGTDYSLTISNLEQEDIATYFCQQTNTLPWTFGGGTKLEIK
Take B1: the “EC50 of antibody induced ADCC effect on SKOV3” value (“EC50 … on SKOV3” below) with human CD276 protein [1] worked out at 1.55 µg/mL.

B2: 2-A7-B10-A3 (human IgG1 chimeric antibody) (antibody, V domains shown)
VH: QVQLQQSGAELVRPGVSVKISCKGSGYTFTDYAMHWVKQSHAKSLEWIGVINTNYVNTSYNQKFKGKATMTVDKSSSTAFMELARLTSEDSAIYYCARGGKYGNYVFFFAYWGQGTLVTVSA
VL: DIQMTQTTSSLSASLGDRVTISCRASQDISNYLNWYQQKPDGTVKLLIYYTSRLHSGVPSRFSGSGSGTDYSLTISNLEQEDIATYFCQQGNTLPYTFGGGTKLEIK
With B2, in the experiment with human CD276 protein [1], the “EC50 … on SKOV3” value turned out to be 4.21 µg/mL.

B3: 11-G10-B4-B11 (human IgG1 chimeric antibody) (antibody, V domains shown)
VH: DVQLQESGPGLVKPSQSLSLTCTVTGYSITSDYAWNWIRQFPGNKLEWMGYISYSGSTSYNPSLKSRISITRDTSKNQFFLQLNSVTTEDTATYYCARGGPWFAYWGQGTLVTVSA
VL: DVVMTQTPLSLPVSLGDQASISCRSSQSLVHSNGNTYLHWYLQKPGQSPKLLIYKVSNRFSGVPDRFSGSGSGTDFTLKISRVEAEDLGVYFCSQSTHVPFTFGSGTKLEIK
notes: human IgG1 chimeric antibody of the mouse clone
As to B3, in the experiment with human CD276 protein [2], the EC50 came out at 0.536 µg/mL and the “MFI (Max)” value came to 3750. Further, the “EC50 … on SKOV3” value in the experiment with human CD276 protein [1] was 17.3 µg/mL.

B4: 11-G10-B4-B11 (antibody, V domains shown)
VH: DVQLQESGPGLVKPSQSLSLTCTVTGYSITSDYAWNWIRQFPGNKLEWMGYISYSGSTSYNPSLKSRISITRDTSKNQFFLQLNSVTTEDTATYYCARGGPWFAYWGQGTLVTVSA
VL: DVVMTQTPLSLPVSLGDQASISCRSSQSLVHSNGNTYLHWYLQKPGQSPKLLIYKVSNRFSGVPDRFSGSGSGTDFTLKISRVEAEDLGVYFCSQSTHVPFTFGSGTKLEIK
notes: mouse monoclonal antibody (hybridoma)
As for B4, the “FACS MFI” value turned out to be 26400 in experiment [3], 2800 with mouse CD276 protein and 32800 with human CD276 protein [4].

B5: 16-C6-F7-F5 (antibody, V domains shown)
VH: QIQLVQSGPEVKKPGETVKISCKASGYTFTKYGINWVKQAPGEGLKWMGWIWTYTGKPTYGDDFKGRFAFSLETSASTAYLQISDLKIEDMATYFCARDDGYYYTMNYWGQGTSVTVSS
VL: DIVMTQTPLSLPVSLGDQASISCRSSQSLLHTNGDTYLHWYLQKAGQPPKLLIYKVSNRFSGVPDRFSGSGSGTDFTLKISRVEAEDLGVYFCSQSTHIPWTFGGGTKLEIK
notes: as for B4
Turning to B5, the entries for the “FACS MFI” value (in experiment [3]; in the experiment with mouse CD276 protein; in the experiment with human CD276 protein [4]) were 19500, 1830 and 141000, respectively.

B6: 16-G3-D10-C10 (antibody, V domains shown)
VH: QIQLVQSGPELKKPGETVKISCKASGYTFRNYGMNWVKQGPGKDLKWMGWINPYTGEPTYIGDFKGRFAFSLETSANSAYLQINNLNNEDMATYFCARDDGYWYTMDYWGQGTSVTVSS
VL: DVVMTQTPPSLPVSLGDQASIPCRSSQSLVHSNGITYLHWYLQKPGQSPKLLIYKVSNRFSGVPDRFSGSGSGTDFTLKISRVEAEDLGVYFCSQSTHVPWTFGGGTKLEIK
notes: as for B4
B6: the figures for the “FACS MFI” value (in experiment [3]; with mouse CD276 protein; with human CD276 protein [4]) were 6190, 1320 and 23200, respectively.

B7: 22-E11-C3-F2 (antibody, V domains shown)
VH: QIQLVQSGPELKRPGETVKISCKASGYSFTNYGMNWVKQAPGKGLKWMGWINPYTGEPTYADDFKGRFAMSLETSASAAYLQINNLKNEDMATYFCGRDDGYHYTMNYWGQGTSVTVSS
VL: DVVMTQPPLSLPVSLGDQASISCRSSQSLIHSNGDTYLHWYLQKPGQSPKLLIYKVSIRFSGVPDRFSGSGSGTDFTLKISRVEAEDLGVYFCSQSTYVPWTFGGGTKLEIK
notes: as for B4
With B7, the figures for the “FACS MFI” value (in experiment [3]; with mouse CD276 protein; with human CD276 protein [4]) were 56500, 1670 and 74300, respectively.

B8: 21-B3-B1-H5 (antibody, V domains shown)
VH: QIQLVQSGPELKKPGETVKISCKASGYIFRNYGMNWVKQAPGKGLKWMGWINSYTGKPTYVDDFKGRFAFSLETSASTAYLQINNLKNEDMATYFCARDDGYWYTMDYWGQGTSVTVSS
VL: DVVMTQTPLSLPVSLGDQASISCRSSQSLVHSNGHTYLHWYLQKPGQSPKLLIYKVSNRFSGVPDRFSGSGSGTDFTLKISRVEAEDLGVYFCSQSTHVPWTFGGGTKLEIK
notes: as for B4
Regarding B8, the “FACS MFI” value in experiment [3] worked out at 20200; with mouse CD276 protein, 1340; in the experiment with human CD276 protein [4], 71500.

B9: 26-D2-D6-B12 (antibody, V domains shown)
VH: QIQLVQSGPELKKPGETVKISCKASGYIFRNYGMNWVKQAPGKGLKWMGWINSYTGKPTYVDDFKGRFAFSLETSASTAYLQINNLKNEDMATYFCARDDGYWYTMDYWGQGTSVTVSS
VL: DVVMTQTPLSLPVSLGDQASISCRSSQSLVHSNGHTYLHWYLQKPGQSPKLLIYKVSNRFSGVPDRFSGSGSGTDFTLKISRVEAEDLGVYFCSQSTHVPWTFGGGTKLEIK
notes: as for B4
For B9, the figures for the “FACS MFI” value (in experiment [3]; in the experiment with mouse CD276 protein; with human CD276 protein [4]) were 63100, 1310 and 47500, respectively.

B10: 11-C12-F4-F6 (antibody, V domains shown)
VH: QIQLVQSGPELKKPGETVKISCKASGYTFRNFGMNWVKQGPGKGLKWMGWINPYTGEPTYVGDFKGRFAFSLETSASTAYLQINNLKNEDMATYFCARDDGYWYTMDYWGQGTSVTVSS
VL: DVVMTQTPPSLPVSLGDQASIPCRSSQSLVHSNGITYLHWYLQKPGQSPKLLIYKVSNRFSGVPDRFSGSGSGTDFTLKISRVEAEDLGVYFCSQSTHVPWTFGGGTKLEIK
notes: as for B4
In the case of B10, the “FACS MFI” value in experiment [3] was 5140; in the experiment with mouse CD276 protein, 1340; with human CD276 protein [4], 41900.

B11: 9-E8-F9-C10 (human IgG1 chimeric antibody) (antibody, V domains shown)
VH: EVQLQQSGAELVRPGTSVKISCKASGYAFSDYWLSWVKQRPGHGLEWIGDICPGSGNIYYNERFKDKVILTADRSSSTAYLQFSSLTSEDSVVYFCTRLITRVIDYWGQGTSVTVST
VL: ENVLTQSPAIMSASPGEKVTMTCSASSSVNYMHWYQQKSSTSPKLWIYDTSKLSSGVPGRFSGSGSGNSYSLTISSMEAEDVATYYCFQGSGYPLTFGAGTKLELK
As for B11, the “EC50 … on SKOV3” value with human CD276 protein [1] was found to be 4.05 µg/mL.

B12: 20-F8-B5-G2 (human IgG1 chimeric antibody) (antibody, V domains shown)
VH: EVQLQESGPSLVKPSQTLSLTCSVTGDSITSAYWNWIRKFPGNKLEYMGYISNSGSTYYNPSLKSRISITRDTSKNQYYLQLNSVTTEDTGTYYCVRGERYYGYGAYWGQGTLVTVSA
VL: DIVMTQATPSVPVTPGESISISCRSSKSLLHSNGNTYLYWFLQRPGQSPQLLIYRMSNLASGVPDRFSGSGSGTAFTLRISRVEAEDVGVYYCMQHLEYPFTFGAGTKLELK
notes: as for B3
Consider B12, for which, in the experiment with human CD276 protein [2], the midpoint of the response, the EC50, lay at 1.11 µg/mL and the “MFI (Max)” value was found to be 3010. Also, the “EC50 … on SKOV3” value in the experiment with human CD276 protein [1] stood at 3.01 µg/mL.

B13: 23-F10-G4-F11 (human IgG1 chimeric antibody) (antibody, V domains shown)
VH: EVQLQESGPDLVRPGALVKLSCKSSGFNIKDYPIHWVRQRPEQGLEWIGWFDPDNGNVIYDPRFQGKASITADTSSNTAYLQLNSLTSEDTAVYYCSSPYGAMDYWGQGTSVTVSS
VL: QIVLTQSPEIMSASPGEKVTMTCSASSSVSYIHWYQQKSGTSPKRWIYDTSKLASGVPARFSGSGSGTSYSLTIRSMEAEDAATYYCQQGSSNPRTFGGGTKLEIK
notes: as for B3
On to B13, for which, in the experiment with human CD276 protein [2], the midpoint of the response, the EC50, lay at 4.42 µg/mL and the “MFI (Max)” value was determined as 6720. Besides, in the experiment with human CD276 protein [1], the “EC50 … on SKOV3” value came to 0.137 µg/mL.

B14: 23-F10-G4-F11 (antibody, V domains shown)
VH: EVQLQESGPDLVRPGALVKLSCKSSGFNIKDYPIHWVRQRPEQGLEWIGWFDPDNGNVIYDPRFQGKASITADTSSNTAYLQLNSLTSEDTAVYYCSSPYGAMDYWGQGTSVTVSS
VL: QIVLTQSPEIMSASPGEKVTMTCSASSSVSYIHWYQQKSGTSPKRWIYDTSKLASGVPARFSGSGSGTSYSLTIRSMEAEDAATYYCQQGSSNPRTFGGGTKLEIK
notes: as for B4
B14: the “FACS MFI” value amounted to 36700 in experiment [3], 1300 with mouse CD276 protein and 127000 with human CD276 protein [4].
